{"source": "patent US10273490B2", "about": "“Erythritol production in cyanobacteria” (Photanol B.V., priority 2014, dated 2019)", "molecules": {"B1": {"name": "ErCm: reductase from Candida magnolia JH110, SEQ ID NO: 9, 10 (protein, listed as Candida magnoliae)", "chain": "MSSTYTLTRLSAPSMVLNSGSQIPAVGYGLWKQQGSEAKDSVRCAIESGYRHLDCATAYQNHKEVGQAIREAGVPRDELWITSKVWGTHFDNPEEGLDDILEELGVEYLDLLLLHLPVAFKRNPEDPKQLRGLPVDHDMKYADVWARMEKLPKSKVRNIGVSNLTVRALDELLQTAKVTPAVNQVEMHPNLPQKKLLDYCKSKGIVVQAYSPLAQGQHENPVVTDIADDLGVSPAQVVLSWGALRGTNILPKSSTPSRIRENLELIQLSDDHMRRIDALARR"}, "B2": {"name": "TM1254: phosphatase from Thermotoga maritima MSB8, SEQ ID NO: 5, 6 (protein, listed as Thermotoga maritima)", "chain": "MEAVIFDMDGVLMDTEPLYFEAYRRVAESYGKPYTEDLHRRIMGVPEREGLPILMEALEIKDSLENFKKRVHEEKKRVFSELLKENPGVREALEFVKSKRIKLALATSTPQREALERLRRLDLEKYFDVMVFGDQVKNGKPDPEIYLLVLERLNVVPEKVVVFEDSKSGVEAAKSAGIERIYGVVHSLNDGKALLEAGAVALVKPEEILNVLKEVL"}, "B3": {"name": "GLD1: reductase from Hypocrea jecorina (Trichoderma reesei), SEQ ID NO: 11, 12 (protein, listed as Hypocrea jecorina)", "chain": "MSSGRTVTLNTGYKIPQIGYGTWQAAPGEVGAGVFEALKVGYRHLDLAKVYGNQKEVGEGIKKALAEVPGLKREDIFITSKLWNNSHKPEDVEPALDDTLAELGLDYLDLYLIHWPVAFAPGADLFPKSEDGSEVQLNQNVSIVQTWKAMTELPKSKVRSVGVSNFTIEHLDAVIEATGVVPAVNQIERHPRLPNQPLIDYCAKKGIIITAYSAFGNNTKGLPLLVSSDEVKAVADNLSKKQGKTVTPAQVILAWSQIGGHTVIPKSVTKARIAENFQEVELDDEAIAALNKLGEKPQRFNIPYTYKPRWNINLFNTEEEKAAAHTAVIKL"}, "B4": {"name": "Gcy1p: erythrose reductase from Saccharomyces cerevisiae, SEQ ID NO: 7, 8 (protein, listed as Saccharomyces cerevisiae)", "chain": "MPATLHDSTKILSLNTGAQIPQIGLGTWQSKENDAYKAVLTALKDGYRHIDTAAIYRNEDQVGQAIKDSGVPREEIFVTTKLWCTQHHEPEVALDQSLKRLGLDYVDLYLMHWPARLDPAYIKNEDILSVPTKKDGSRAVDITNWNFIKTWELMQELPKTGKTKAVGVSNFSINNLKDLLASQGNKLTPAANQVEIHPLLPQDELINFCKSKGIVVEAYSPLGSTDAPLLKEPVILEIAKKNNVQPGHVVISWHVQRGYVVLPKSVNPDRIKTNRKIFTLSTEDFEAINNISKEKGEKRVVHPNWSPFEVFK"}, "B5": {"name": "ALR1: reductase from Aspergillus niger, SEQ ID NO: 13, 14 (protein)", "chain": "MSLGKKVTLNSGAQIPQLGFGTWQSAPGQVGDAVYEALKAGYRHLDLATIYQNQREVAEGIKRAYKDVPGLKREDIFITSKLWNSQHDPAVVEKALDECLAELELDYLDLYLVHWPVSFTTGSELFPLVKDSSVEGGDVVINDDISIVDTWKAMTQLPKSKARTVGVSNHMIPHLEAIINATGVVPAVNQIERHPVLQSNELIEYCQKKGIHVTAYSAFGNNGFGVPLLVTRPEVKEVAESASKRLGTTVTPAQVILAWSQVGGHSVIPKSVTPSRIHENFKEVELTPEEIAKVSELGKDRRRYNTPYVANTPRWDIDIFGEEEEKPAGHKVIV", "modifications": "Aspergillus niger"}, "B6": {"name": "YidA: phosphatase from Escherichia coli, SEQ ID NO: 1, 2 (protein, listed as Escherichia coli)", "chain": "MAIKLIAIDMDGTLLLPDHTISPAVKNAIAAARARGVNVVLTTGRPYAGVHNYLKELHMEQPGDYCITYNGALVQKAADGSTVAQTALSYDDYRFLEKLSREVGSHFHALDRTTLYTANRDISYYTVHESFVATIPLVFCEAEKMDPNTQFLKVMMIDEPAILDQAIARIPQEVKEKYTVLKSAPYFLEILDKRVNKGTGVKSLADVLGIKPEEIMAIGDQENDIAMIEYAGVGVAMDNAIPSVKEVANFVTKSNLEDGVAFAIEKYVLN"}}, "key": {"[1]": {"test_system": "Synechocystis PCC6803", "test": "Toxicity assay for erythritol: resistance of Synechocystis PCC6803, growth rate", "format": "cell-based", "conditions": "BG-11, pH 8.0, low light ~40 μE, 30° C.", "description": "FIG. 4. Toxicity assay for erythritol. Synechocystis PCC6803 was inoculated in 10 ml BG-11 supplemented with 10 mM TES-buffer-NaOH (pH=8.0) and with 10 μg/ml kanamycine at an OD of 0.2. The culture was incubated at low light intensity (˜40 μE), 30° C. and shaking at 120 rpm. It was clearly shown (FIG. 4) that up to a concentration of 10 gr/L erythritol, cultures are not affected with respect to growth-rate."}, "[2]": {"conditions": "substrate D-erythrose; cited from earlier work"}, "[3]": {"conditions": "co-factor NADPH; cited from earlier work"}, "[4]": {"conditions": "substrate D-erythrose-4-P; cited from earlier work"}}, "note": "Where two headings read alike, the source gives them in different places.", "data": [{"molecule": "OC[C@@H](O)[C@@H](O)CO", "note": "[erythritol]", "values": [{"measurement": "erythritol concentration up to which cultures are not affected with respect to growth-rate", "setting": "[1]", "value": "≤ 10", "unit": "gr/L"}]}, {"molecule": "B1", "values": [{"measurement": "D-erythrose Kcat", "setting": "[2]", "value": 7.6, "unit": "s⁻¹"}, {"measurement": "Km", "setting": "[2]", "value": 8500, "unit": "µM"}, {"measurement": "Km", "setting": "[3]", "value": 16, "unit": "µM"}, {"measurement": "NADPH Kcat", "setting": "[3]", "value": 48, "unit": "s⁻¹"}]}, {"molecule": "B2", "values": [{"measurement": "D-erythrose-4-P Vmax", "setting": "[4]", "value": 2.63, "unit": "umol/min/mg protein"}, {"measurement": "Km", "setting": "[4]", "value": 152, "unit": "µM"}]}, {"molecule": "B3", "values": [{"measurement": "Km", "setting": "[2]", "value": "16 to 134", "unit": "µM"}]}, {"molecule": "B4", "values": [{"measurement": "Km", "setting": "[2]", "value": 3400, "unit": "µM"}]}, {"molecule": "B5", "values": [{"measurement": "D-erythrose Kcat", "setting": "[2]", "value": 25, "unit": "s⁻¹"}, {"measurement": "Km", "setting": "[2]", "value": 139, "unit": "µM"}]}, {"molecule": "B6", "values": [{"measurement": "D-erythrose-4-P Kcat", "setting": "[4]", "value": 19, "unit": "s⁻¹"}, {"measurement": "Km", "setting": "[4]", "value": 19, "unit": "µM"}]}]}
